Experimental data from patent US20070104732A1 (published 2007).

Legend:
Assay in all cases: cell-based or functional assay
[1] = molecular target: cellular proteins integrins
[2] = molecular target: EGFR-Ecoil pseudoreceptor (UniProt P00533)
[3] = molecular target: EGFR-Ecoil pseudoreceptor (UniProt P00533 646-1210)

In the case of “Modified fiber FK4mm-RGD of AdFK4mmRGD/GFP (S->E at aa 408, P->A at aa 409, RGD motif in the HI-loop, K4 K-coil at the C-terminus) (from UniProt P11818 1-581)”, the transduction efficiency of AdFK4mmRGD/GFP in HeLa-rtTA and A549-tTA cells relative to AdFK4m/GFP (GFP expression, flow cytometry) [1] is reported as 3 to 6 fold and the transduction of 293E cells by AdFK4mmRGD/GFP relative to AdFK4m/GFP (GFP expression, flow cytometry) [1] is reported as 2 to 3 times.

Work on K-coil soluble peptide yielded an inhibition of AdFK4m/GFP mediated GFP gene transfer in 293E cells after pre-incubation with 2 ug K-coil soluble peptide, MOI 0.05 [2] of 80%.

B1: Chimeric adenoviral fiber FK4m of AdFK4m/GFP (S->E at aa 408, K4 K-coil at the C-terminus) (other)
chain (part 1 of 2): MKRARPSEDTFNPVYPYDTETGPPTVPFLTPPFVSPNGFQESPPGVLSLRLSEPLVTSNGMLALKMGNGLSLDEAGNLTSQNVTTVSPPLKKTKSNINLEISAPLTVTSEALTVAAAAPLMVAGNTLTMQSQAPLTVHDSKLSIATQGPLTVSEGKLALQTSGPLTTTDSSTLTITASPPLTTATGSLGIDLKEPIYTQNGKLGLKYGAPLHVTDDLNTLTVATGPGVTINNTSLQTKVTGALGFDSQGNMQLNVAGGLRIDSQNRRLILDVSYPFDAQNQLNLRLGQGPLFINSAHNLDINYNKGLYLFTASNNSKKLEVNLSTAKGLMFDATAIAINAGDGLEFGSPNAPNTNPLKTKIGHGLEFDSNKAMVPKLGTGLSFDSTGAITVGNKNNDKLTLWTTPAPEPNCRLNAEKDAKLTLVLTKCGSQILATVSVLAVKGSLAPISGTVQSAHLIIRFDENGVLLNNSFLDPEYWNFRNGDLTEGTAYTNAVGFMPNLSAYPKSHGKTAKSNIVSQVYLNGDKTKPVTLTITLNGTQETGDTTPSAYSMSFSWDWSGHNYINEIFATSSYTFSYIAQE
chain (part 2 of 2): KVSALKEKVSALKEKVSALKEKVSALKE
In the case of B1, the “transduction efficiency (GFP expression, flow cytometry) of AdFK4m/GFP in 293E cells compared with 293 cells, MOI 0.01” value [3] is reported as 7 fold, the “transduction efficiency (GFP expression, flow cytometry) of AdFK4m/GFP in 293E cells compared with 293 cells, MOI 0.05” value [3] is reported as 24 fold and the “transduction efficiency (GFP expression, flow cytometry) of AdFK4m/GFP in 293E cells compared with 293 cells, MOI 0.5” value [3] is reported as 11 fold. The “transduction efficiency (GFP expression, flow cytometry) of AdFK4m/GFP in 293E cells compared with 293 cells, MOI 0.8” value [3] was 8 fold.
